Tests used:
GFP-PARP2 = biological target: T1, GFP-PARP2 (UniProt Q9UGN5-2 1-570); experiment: affinity purification with mass spectrometry; GFP pull-down of PARP1-GFP or GFP-PARP2 from U2OS (FRT) WT cells, label-free proteomics with iBAQ quantification; cells unirradiated or UV-C-irradiated (20 J/m^2, 1 h); settings: partners not purified
T1 construct: also called PARP2-GFP; source: U2OS (FRT) WT, stably expressed (Flp-In, doxycycline-inducible), in lysate; not shown: GFP, N-terminal, kept

PARP1-GFP = biological target: T2, PARP1-GFP (UniProt P09874 1-1014); experiment: as above; settings: partners not purified
T2 construct: source: U2OS (FRT) WT, stably expressed (Flp-In, doxycycline-inducible), in lysate; not shown: GFP, C-terminal, kept
T2 sequence (P09874 whole entry): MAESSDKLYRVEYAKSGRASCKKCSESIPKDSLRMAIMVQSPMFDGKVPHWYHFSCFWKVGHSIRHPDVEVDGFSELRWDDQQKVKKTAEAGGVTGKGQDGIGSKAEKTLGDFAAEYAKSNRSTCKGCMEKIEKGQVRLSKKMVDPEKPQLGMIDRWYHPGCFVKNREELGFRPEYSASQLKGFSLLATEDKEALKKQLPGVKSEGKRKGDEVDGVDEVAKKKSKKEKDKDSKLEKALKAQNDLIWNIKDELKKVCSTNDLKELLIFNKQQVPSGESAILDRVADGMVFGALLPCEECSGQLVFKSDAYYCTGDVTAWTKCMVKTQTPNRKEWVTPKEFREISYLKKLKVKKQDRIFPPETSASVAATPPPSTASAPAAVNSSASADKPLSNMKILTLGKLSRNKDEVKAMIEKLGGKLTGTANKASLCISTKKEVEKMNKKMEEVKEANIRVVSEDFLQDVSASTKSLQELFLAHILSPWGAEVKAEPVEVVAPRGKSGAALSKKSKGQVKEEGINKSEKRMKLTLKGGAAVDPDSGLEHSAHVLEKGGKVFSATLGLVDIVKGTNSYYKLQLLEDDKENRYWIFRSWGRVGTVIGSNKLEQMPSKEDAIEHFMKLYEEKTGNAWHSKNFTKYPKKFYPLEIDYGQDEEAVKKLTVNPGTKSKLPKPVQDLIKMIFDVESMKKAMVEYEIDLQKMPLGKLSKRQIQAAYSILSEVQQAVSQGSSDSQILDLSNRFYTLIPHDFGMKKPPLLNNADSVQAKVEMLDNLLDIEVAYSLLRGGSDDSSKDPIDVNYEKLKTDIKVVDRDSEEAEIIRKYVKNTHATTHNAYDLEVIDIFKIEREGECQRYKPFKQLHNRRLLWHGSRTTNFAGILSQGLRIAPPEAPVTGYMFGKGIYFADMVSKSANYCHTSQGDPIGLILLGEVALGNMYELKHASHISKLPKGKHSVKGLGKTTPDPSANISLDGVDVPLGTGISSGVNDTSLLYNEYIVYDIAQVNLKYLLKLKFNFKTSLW

T1 sequence (Q9UGN5 other isoform, or with tags, fused parts or gaps): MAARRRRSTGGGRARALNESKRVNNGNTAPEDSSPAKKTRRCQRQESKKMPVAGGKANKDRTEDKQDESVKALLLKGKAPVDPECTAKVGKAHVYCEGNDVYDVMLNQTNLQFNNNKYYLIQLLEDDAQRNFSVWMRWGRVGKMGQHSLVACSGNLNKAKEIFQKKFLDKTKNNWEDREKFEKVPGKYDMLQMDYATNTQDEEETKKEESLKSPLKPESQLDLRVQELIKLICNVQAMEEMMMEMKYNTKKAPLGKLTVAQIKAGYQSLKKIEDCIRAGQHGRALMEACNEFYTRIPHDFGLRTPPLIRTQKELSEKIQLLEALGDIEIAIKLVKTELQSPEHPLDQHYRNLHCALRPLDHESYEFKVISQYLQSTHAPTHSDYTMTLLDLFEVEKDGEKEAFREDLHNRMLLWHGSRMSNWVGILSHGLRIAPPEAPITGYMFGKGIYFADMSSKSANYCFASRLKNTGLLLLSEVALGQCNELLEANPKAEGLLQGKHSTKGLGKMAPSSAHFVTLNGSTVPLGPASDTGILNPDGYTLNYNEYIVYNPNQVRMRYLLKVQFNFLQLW

Row | Binder | fold, fraction of bait molecules associated with XPC, GFP-PARP2 against PARP1-GFP (iBAQ) (GFP-PARP2) | percent of the isolated bait molecules associated with the prey (iBAQ) (PARP1-GFP) | percent of the isolated bait molecules associated with the prey (iBAQ) (GFP-PARP2)
1 | XPC (endogenous) (natural protein, human (endogenous in U2OS), UniProt Q01831 1-940, looked up, XPC, endogenous in U2OS cells; source: endogenous, U2OS (FRT) WT lysate) MARKRAAGGEPRGRELRSQKSKAKSKARREEEEEDAFEDEKPPKKSLLSKVSQGKRKRGCSHPGGSADGPAKKKVAKVTVKSENLKVIKDEALSDGDDLRDFPSDLKKAHHLKRGATMNEDSNEEEEESENDWEEVEELSEPVLGDVRESTAFSRSLLPVKPVEIEIETPEQAKTRERSEKIKLEFETYLRRAMKRFNKGVHEDTHKVHLLCLLANGFYRNNICSQPDLHAIGLSIIPARFTRVLPRDVDTYYLSNLVKWFIGTFTVNAELSASEQDNLQTTLERRFAIYSARDDEELVHIFLLILRALQLLTRLVLSLQPIPLKSATAKGKKPSKERLTADPGGSSETSSQVLENHTKPKTSKGTKQEETFAKGTCRPSAKGKRNKGGRKKRSKPSSSEEDEGPGDKQEKATQRRPHGRERRVASRVSYKEESGSDEAGSGSDFELSSGEASDPSDEDSEPGPPKQRKAPAPQRTKAGSKSASRTHRGSHRKDPSLPAASSSSSSSKRGKKMCSDGEKAEKRSIAGIDQWLEVFCEQEEKWVCVDCVHGVVGQPLTCYKYATKPMTYVVGIDSDGWVRDVTQRYDPVWMTVTRKCRVDAEWWAETLRPYQSPFMDREKKEDLEFQAKHMDQPLPTAIGLYKNHPLYALKRHLLKYEAIYPETAAILGYCRGEAVYSRDCVHTLHSRDTWLKKARVVRLGEVPYKMVKGFSNRARKARLAEPQLREENDLGLFGYWQTEEYQPPVAVDGKVPRNEFGNVYLFLPSMMPIGCVQLNLPNLHRVARKLDIDCVQAITGFDFHGGYSHPVTDGYIVCEEFKDVLLTAWENEQAVIERKEKEKKEKRALGNWKLLAKGLLIRERLKRRYGPKSEAAAPHTDAGGGLSSDEEEGTSSQAEAARILAASWPQNREDEEKQKLKGGPKKTKREKKAAASHLFPFEQL | 10 fold | – | –
2 | ALC1 (endogenous) (enzyme, human (endogenous in U2OS), UniProt Q86WJ1 1-897, looked up, ALC1 (CHD1L), endogenous in U2OS cells; also called poly-(ADP-ribose)-dependent chromatin remodeler ALC1; the remodeler; source: endogenous, U2OS (FRT) WT lysate) MERAGATSRGGQAPGFLLRLHTEGRAEAARVQEQDLRQWGLTGIHLRSYQLEGVNWLAQRFHCQNGCILGDEMGLGKTCQTIALFIYLAGRLNDEGPFLILCPLSVLSNWKEEMQRFAPGLSCVTYAGDKEERACLQQDLKQESRFHVLLTTYEICLKDASFLKSFPWSVLVVDEAHRLKNQSSLLHKTLSEFSVVFSLLLTGTPIQNSLQELYSLLSFVEPDLFSKEEVGDFIQRYQDIEKESESASELHKLLQPFLLRRVKAEVATELPKKTEVVIYHGMSALQKKYYKAILMKDLDAFENETAKKVKLQNILSQLRKCVDHPYLFDGVEPEPFEVGDHLTEASGKLHLLDKLLAFLYSGGHRVLLFSQMTQMLDILQDYMDYRGYSYERVDGSVRGEERHLAIKNFGQQPIFVFLLSTRAGGVGMNLTAADTVIFVDSDFNPQNDLQAAARAHRIGQNKSVKVIRLIGRDTVEEIVYRKAASKLQLTNMIIEGGHFTLGAQKPAADADLQLSEILKFGLDKLLASEGSTMDEIDLESILGETKDGQWVSDALPAAEGGSRDQEEGKNHMYLFEGKDYSKEPSKEDRKSFEQLVNLQKTLLEKASQEGRSLRNKGSVLIPGLVEGSTKRKRVLSPEELEDRQKKRQEAAAKRRRLIEEKKRQKEEAEHKKKMAWWESNNYQSFCLPSEESEPEDLENGEESSAELDYQDPDATSLKYVSGDVTHPQAGAEDALIVHCVDDSGHWGRGGLFTALEKRSAEPRKIYELAGKMKDLSLGGVLLFPVDDKESRNKGQDLLALIVAQHRDRSNVLSGIKMAALEEGLKKIFLAAKKKKASVHLPRIGHATKGFNWYGTERLIRKHLAARGIPTYIYYFPRSKSAVLHSQSSSSSSRQLVP | – | 0.07% | ~15%

— publication PMC9376112, “XPC–PARP complexes engage the chromatin remodeler ALC1 to catalyze global genome DNA damage repair” (Nature Communications, 2022)
